The results in this text go back to the supplement of paper PMC7877785.

This series in a line: self-splicing fitness, log relative to wild type (ln ratio); higher = more splicing; Tetrahymena group I intron in knt gene, E. coli kanamycin selection, DiMSum; sequences stand for … in CUCUCU…GGAGGGAAAAGUUAUCAGGCAUGCACCUGGUAGCUAGUCUUUAAACCAAUAGAUUGCAUCGGUUUAAAAGGCAAGACCGUCAAAUUGCGGGAAAGGGGUCAACAGCCGUUCAGUACCAAGUCUCAGGGGAAACUUUGAGAUGGCCUUGCAAAGGGUAUGGUAAUAAGCUGACGGACAUGGUCCUAACCACGCAGCCAAGUCCUAAGUCAACAGAUCUUCUGUUGAUAUGGAUGCAGUUCACAGACUAAAUGUCGGUCGGGGAAGAUGUAUUCUUCUCAUAAGAUAUAGUCGGACCUCUCCUUAAUGGGAGCUAGCGGAUGAAGUGAUGCAACACUGGAGCCGCUGGGAACUAAUUUGUAUGCGAAAGUAUAUUGAUUAGUUUUGGAGUACUCGUGGUCG
The essentials: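 Six replicate transformations of E. coli BL21(DE3) with a pET-22b(+) library were grown overnight at 37°C or 30°C. The library randomised all eight P1ex-region intron nucleotides, the intron lying in the knt kanamycin-resistance gene, and plates were LB agar with or without 25 μg/mL kanamycin plus 100 μg/mL carbenicillin, 50 μM IPTG and 0.2% rhamnose. Pooled colonies were amplicon-sequenced on an Illumina HiSeq 2500, and fitness is the DiMSum error-weighted combination of wild-type-normalised replicate fold changes, kanamycin versus none.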

± gives the uncertainty stated by the source.

With CAUCAGCAAUAUUACGACUC, the “self-splicing fitness (ln)” value (30 °C) is -1.82 ± 0.26 and the “self-splicing fitness (ln)” value (37 °C) is -0.687 ± 0.23. Taken in the same sequence, the figures for AUAGAGCAAUAUUACGAGGG were -3.05 ± 0.25 and -1.56 ± 0.26. Taken in the same sequence, the figures for UCUCAGCAAUAUUACGUUUA were -2.98 ± 0.18 and -1.08 ± 0.13. The like results for UACAAGCAAUAUUACGCCUU were, in that order, -0.984 ± 0.091 and -1.04 ± 0.092. Take AAAAAGCAAUAUUACGUUCC: the “self-splicing fitness (ln)” value is -1.3 ± 0.098 (30 °C) and -0.521 ± 0.14 (37 °C). For the sequence AUGAAGCAAUAUUACGGAGA, the “self-splicing fitness (ln)” value by setting is: (30 °C) -2.55 ± 0.33; (37 °C) -0.873 ± 0.23. Taken in the same sequence, the figures for UUCGAGCAAUAUUACGUACA were -2.27 ± 0.22 and -1.81 ± 0.15.

UCUAAGCAAUAUUACGCACG: the “self-splicing fitness (ln)” value (30 °C) was -1.11 ± 0.19 and the “self-splicing fitness (ln)” value (37 °C) was -1.8 ± 0.23. As for CGAUAGCAAUAUUACGUAUC, the “self-splicing fitness (ln)” value (30 °C) was -3.4 ± 0.3. Take GUCAAGCAAUAUUACGUGUA: the “self-splicing fitness (ln)” value is -1.8 ± 0.062 (30 °C) and -0.887 ± 0.072 (37 °C). In the case of GAUGAGCAAUAUUACGGACC, the “self-splicing fitness (ln)” value is, setting by setting: (30 °C) -0.753 ± 0.19; (37 °C) -0.541 ± 0.22. Taken in the same sequence, the figures for GGCCAGCAAUAUUACGACGC were -1.02 ± 0.15 and 0.369 ± 0.17. Taken in the same sequence, the figures for AAUAAGCAAUAUUACGGUAC were -2.68 ± 0.21 and -1.79 ± 0.14. Regarding GACAAGCAAUAUUACGUCAG, the “self-splicing fitness (ln)” value is, setting by setting: (30 °C) -3.3 ± 0.23; (37 °C) -2.21 ± 0.2.

Turning to AAGCAGCAAUAUUACGACCA, the “self-splicing fitness (ln)” value (30 °C) is -0.635 ± 0.12 and the “self-splicing fitness (ln)” value (37 °C) is -0.265 ± 0.14.

For GUUAAGCAAUAUUACGGCUA, the “self-splicing fitness (ln)” value runs as follows: (30 °C) 0.289 ± 0.099; (37 °C) 0.176 ± 0.1. AGCCAGCAAUAUUACGUCGC: the “self-splicing fitness (ln)” value runs as follows: (30 °C) -3.44 ± 0.35; (37 °C) -2.74 ± 0.21.

In the case of GGUCAGCAAUAUUACGAGCG, the “self-splicing fitness (ln)” value by setting is: (30 °C) 0.269 ± 0.081; (37 °C) -0.0123 ± 0.094. CGUGAGCAAUAUUACGUUCC: where the note is “30 °C”, the “self-splicing fitness (ln)” value is -3.37 ± 0.31. As for GGCGAGCAAUAUUACGGGCG, the “self-splicing fitness (ln)” value was -0.296 ± 0.12 (30 °C) and 0.0537 ± 0.14 (37 °C). Taken in the same sequence, the figures for CGUAAGCAAUAUUACGGAUG were -0.733 ± 0.091 and -0.608 ± 0.12. Taken in the same sequence, the figures for UUCGAGCAAUAUUACGCCUU were -3.09 ± 0.26 and -1.64 ± 0.26.

As to AUCGAGCAAUAUUACGCACC, where the note is “30 °C”, the “self-splicing fitness (ln)” value was -1.65 ± 0.18. Consider UCUUAGCAAUAUUACGGGUG, for which the “self-splicing fitness (ln)” value is -0.927 ± 0.055 (30 °C) and -0.165 ± 0.069 (37 °C). Taken in the same sequence, the figures for CCUGAGCAAUAUUACGCCAU were -3.2 ± 0.4 and -2.13 ± 0.33. Taken in the same sequence, the figures for AUAGAGCAAUAUUACGCGCU were -2.64 ± 0.29 and -0.717 ± 0.24.

In the case of GGAUAGCAAUAUUACGCCUU, the “self-splicing fitness (ln)” value was -0.526 ± 0.11 (30 °C) and 0.31 ± 0.1 (37 °C).

Regarding AGGAAGCAAUAUUACGGACC, the “self-splicing fitness (ln)” value was -0.483 ± 0.27 (30 °C) and 0.238 ± 0.27 (37 °C). Taken in the same sequence, the figures for AGUAAGCAAUAUUACGCCCC were 0.393 ± 0.41 and -1.15 ± 0.36. For GCCUAGCAAUAUUACGCCAU, the “self-splicing fitness (ln)” value (37 °C) was -1.68 ± 0.45. As for UCACAGCAAUAUUACGACAC, the “self-splicing fitness (ln)” value (30 °C) was -3.44 ± 0.38 and the “self-splicing fitness (ln)” value (37 °C) was -2.71 ± 0.34. The like results for GCCUAGCAAUAUUACGAACA were, in that order, -2.17 ± 0.22 and -1.03 ± 0.19. Taken in the same sequence, the figures for UUGAAGCAAUAUUACGACGC were -0.722 ± 0.11 and 0.156 ± 0.14.

As for GAAAAGCAAUAUUACGAUGU, the “self-splicing fitness (ln)” value is, setting by setting: (30 °C) -1.07 ± 0.084; (37 °C) -0.404 ± 0.096. The like results for CCCGAGCAAUAUUACGAUAU were, in that order, -4.76 ± 0.45 and -2.2 ± 0.22.

On to CCACAGCAAUAUUACGUCGC, for which the “self-splicing fitness (ln)” value is -3.63 ± 0.17 (30 °C) and -3.36 ± 0.22 (37 °C). The like results for UUGAAGCAAUAUUACGUCAG were, in that order, 0.252 ± 0.076 and 0.934 ± 0.11.

As to UGUGAGCAAUAUUACGUGUU, the “self-splicing fitness (ln)” value was -3.8 ± 0.25 (30 °C) and -2.59 ± 0.25 (37 °C). Taken in the same sequence, the figures for CAUCAGCAAUAUUACGAAAG were -0.638 ± 0.065 and -0.249 ± 0.087.
